# Assay results published in US6858425.
# Tested on: mannose 6-phosphate receptors on the cell surface of fibroblasts
substance,measurement,value
recombinant human acid α-glucosidase produced in the milk of transgenic mice,restoration of acid α-glucosidase activity in GSD II patient fibroblasts after 20 hours with the enzyme,Under these conditions acid α-glucosidase of the patient fibroblasts was restored to the level measured in fibroblasts from healthy individuals
same,"restoration of acid α-glucosidase activity in GSD II patient fibroblasts, with 5 mM mannose 6-phosphate as a competitor",Restoration by α-glucosidase form milk was inhibited by 5 mM mannose 6-phosphate
